Values belong to the substance of their own block, whether it stands above or below them.
Assays:
[1] = biological target: autoprocessed, secreted PCSK9-152FLAG-V5/His (human) (UniProt Q8NBP7); test: TR-FRET on cell media, 50,000 cells per well
LDLR = LDLR (UniProt P01130); test: cell-based or functional assay

- window of the TR-FRET ratio against PCSK9-152FLAG-V5/His-S386A [1]: 3 fold
Substance: Eu+3-labeled anti-FLAG M1 antibody

- activity in PCSK9-dependent LDL uptake against processed PCSK9 (LDLR): 20 fold
Substance: purified nonprocessed D186A PCSK9 (from UniProt Q8NBP7 31-692) (enzyme)

- EC50, inhibition of diI-LDL uptake in HEK293 cells (LDLR): 189 nM
- fold decrease in potency in the PCSK9-dependent LDL-uptake assay against WT PCSK9 (LDLR): 4 fold
Substance: purified processed D186A PCSK9 (with retained pro domain) (from UniProt A8T644 31-152; Q8NBP7 153-692) (enzyme)
